Reference: the nanobody polyreactivity screen of Harvey et al. (2022)

Test: yeast display, Sf9 membrane polyspecificity reagent, FACS + sequencing; frameworks hold sequencing errors
Method in brief: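 Using colony PCR, genes from sorted yeast display clones were amplified, then sequenced on MiSeq at 2 × 250 and filtered by CDR length. The clones had been stained with 10% biotinylated, detergent-solubilized Sf9 membrane reagent for 1 hour at 4 °C and sorted by FACS into low and high (top ~1%) gates on anti-HA and streptavidin fluorescence. Polyreactivity labels come from the gate of origin.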

Sequence | polyreactivity (PSR sort gate)
QVQLVESGGGLVQAGGSLRLSCAASGRNILVYAMGWYRQAPGKERELVAAISSGGSTYYADSVKGRFTISRDNAKNTVYLQMNSLKPEDTAVYYCAAQFDVYYSRQPYDYNRSGYWGQGTQVTVSS | low polyreactivity
QVQHVESGGGLVQAGGSLRLSCAASGGIFHGYAMGWYRQAPGKERELVAAISRGGSTNYADSVKGRFTISRDNAKNTVYLQMNSLKPQDTAVYYCAARTRWFKGYDYWGQGTQVTVSS | high polyreactivity
QVQLVESGGGLVQAGGSLRLSCAASGSTFGLYAMGWYRQAPGKERELVADITWSGGSTYYADSVKGRFTISRDNAKNTVYLQMNSMKPEDTAVYYCAARYAWVYYDFDYCGQGTQVTVSS | low polyreactivity
QVQHVESGGGLVQAGGSLRLSCAASAIIFGDYAMGWYRQAPGKETELVAAINLDGTSTYYADSVKGRFTISRDIAKHSVYLQINSLKTEDTAGFYCAAVPDKYCCRVRRYLFEHNYWGQGTQVTVSS | low polyreactivity
QVQLVESGGGLVQAGGSLRLSCAASGYIFGHYAMGWYRQAPGKERELVAGITWRGGSTYYADSVKGRFTISRDNAKNTVYLQMNSLKPEDTAVYYCNAQYTQRWPYGLYYEMDYWGQGTQVTVSS | low polyreactivity
QVQLVESGGALVQAGGSLRLSCAASGRTFTFNTMGWYRQAPGKERELVAAIDGDGTTNYADSVKGRFTISRDNAKNTVYLLMNSLKPEDTAVYYCAADFLYSFWYEPTFDYCGQGTQVTVSS | low polyreactivity
QVQLVESGGGLVQAGGSLRLSCAASGRTFYRNAMGWYRQAPGKEREFVAVISVSGGSTYYADSVKGRFTISRDNAKNTVYLQMNSLKPEDTAVSYCAADDYYLAGDYWGQGTQVTVSS | low polyreactivity
QVQLVESGGGLVQARGSLRLSCAASGRIFSYYAMGWYRQAPGKERELVATISKSGGSTYYADSVKGRFTISRDNAKNTVYLQMNSLKPEDTALYYCAAVGPYRWYDYWGQGTQVTVSS | high polyreactivity
QVQLVESGGGLVQAGGSLRLSCAASGSILRRYAMGWYRQAPGKEREFVAAISYSGSRTYYADSVKGRFTISRDNAKNTVYLQMNSLKPEDTAVYFCAADSYGSRYEYWGQGTQVTVSS | high polyreactivity
QVQLVESGGGLVQAGGSLRLSCAASGFIFKRYAMGWYRQAPGKEREFVAAISWGGGNTYYADSVKGRFTISRDNAKNTVYLQMNSLKPEDTAVYYCAKVTSALKYGYWGQGTQVTVSS | high polyreactivity
QVQLVESGGGLVQAGGSLRLSCAASGRIFQKYAMGWYRQAPGKERELGAAISSGDSTYADSVKGRFTISRDNAKNTVYLQMNSLKPEDTAVYYCAVDLYDPWWYSYIGEYEYWGQGTQVTVSS | low polyreactivity
QVQLVESGGGLVQAGGSLRLSCAASGFIFGLYDMGWYRQAPGKERELVAAISWSGGSTYYADSVKGRFTISRDNAKNTVYLQMNSLKPQDTAFYYCAAKHVGWYVQEEDYWGQGSQVTVSS | low polyreactivity
QVQLVESGGGLVQAGGSLRLSCAASGSTFYGYAMGWYRQAPGKERELVAAISSSGTRTYYADSVKGRFTISRDNAKNTVYLQMNSLKPEDTAVYYCATDVRVGHIRDYDYWGQGTQVTVSS | high polyreactivity
QVQLVESGGGLVQAGCILRLSCAASGRTFHLNAMGWYIQAPGKEREMVAAITNSGGRTSYADSVKVRFTISRDNAKNTVYIQMNSLKPEDTAVYYFNVEVTYSSGKYYYWGQGTQVTVSS | low polyreactivity
QVQLQESGGGLVLAGGSLRLSCAASGSISAQAYMGWDRQAPGKEREHVAGINYGDNTNYADSVKGRFTISRDNEHRVSADEQPETGRYRVVLLRGFLELFYYYIYWGQGTQVTVSS | high polyreactivity
QVQLVESGGGLVQAGGSLRLSCAASGFIFGIYAMGWYRQAPGKERELVAAISYRGGRTYYADSVKGRFTISRDNAKNTVYLQMNSLKPEDTAVYYCNTRGYRPGYNYWGQCTQVTVSS | high polyreactivity
QVQLVESGGGLVQAGGSLRLSCAASGFTTRSYAMGWYRQAPGKERELVAAISFSGGRTYYADSVKGRFTISRDNAKNTVYLQMNSLKPEDTAVYYCNARAYTRYSLLDYWGQGTQVTVSS | high polyreactivity
QVQLVESGGGLVQAGGSLRLSCAASGFIFYDYMGWYRQAPGKERELVAVISYSGSSTYYADSVKGRFTISRDNAKNTVYLQMNSLKPEDTAVYYCAARNVNGWDYDYWGQGTQVTVSS | low polyreactivity
QVQLVESGGGLVQAGGSLRLSCAASGRTFRSYTMGWYRQAPGKERELVAAISYNGGSTYYADSVKGRFTISRDNAKNTVYLQMNSLKPEDTAVYYCNKDFDGRFDYWGQGTQVTVSS | high polyreactivity
QVQLVESGGGLVQAGGSLRLSCAASGSTFYYYAMGWYRQAPGKERELVAAISKSGGSTYYADSVKGRFTISRDNAKNTVYLQMNSLKPEDTAVYYCAARGRYISDYWGQGTQVTVSS | high polyreactivity
QVQLVESGGGLVQAGGSLRLSCAASGGTFEVNAMGWYRQAPGKERELVAAIDTSDGSTYYADSVKGRFTISRDNAKNTVYLQMNSLKPEDTAVYYCAAERLFRFWYSAYERYDYWGQGTQVTVSS | low polyreactivity
QVQLVESGGGLVQAGGSLRLSCAASGSTFGRNAMGWYRQAPGKERELVAAISTSGSRTYYADSVKGRFTISRDNAKNTVYLQMNSLKPEDTAVYYCNAYGVSRGSYGTRGYWGQGTQVTVSS | high polyreactivity

Sequence | polyreactivity (PSR sort gate)
QVQLVESGGGLVQAGGSLRVSCAASGRIFDSYAMGWSRQAPGKERELVAVISNNDGTTYYADSVKGRFTISRDNAKTTVYLQMNSLKPEDTAVYYCNAVYSSGVDGSEGFDYWGQGTQVTVSS | low polyreactivity
QVQLLESGGGLVQAGGSLRLSCAASGRTFRSYVMVWYRQAPGKERELVAAISRSGGSTYYADSVKGRFTISRDNAKNTVYLQMNSLKPEDTAVYYCATKRVLTGYDSWGQGTQVTVSS | high polyreactivity
QVQLVESGGGLVQAGGSLPLSSAAYGSIFYYNAMGWYRQAPGKERELVAAISYSGDSTSYADSVKGRFTISRDNAKNYVFLQMYRLKPEDTAVFYCAAEQDYEDFYEDYYWGQGTQVTVSS | high polyreactivity
QVQLVESGGGLVQAGGSLRLSCAASGRSFQDNAMGWYRQAPGKERELVAAISWRGGSTNYADSVKGRFTISRDNAKNTVYLQMNSLKPEDTAVYYCAKGIRRWYGGSDYWGQGTQVNVSS | low polyreactivity
QVQLVESGGGLVQAGGSLRLSCAASGSTFSDYTMGWYRQAPGKERELVAAITTIGGSTYYADSVKGRFTISRDNAKNTVYLQMNSLKPEDTAVYYCAAYYYYPFEYYYWGQGTQVTVSS | low polyreactivity
QVQLVESGGGLVQAGGSLRLSCAASGFTFYTNTMGWYRQAPGKERELVAAISSGGSTYYADSVKGRFTISRDNAKNTVYLQMNRLKPEDTAVYYCNAYDYHDVADDYWGQGTQVTVSS | low polyreactivity
QVQLVESGGGLVQAGGSLRLICAASGSTFWRYAMGWYRQAPGKERELVAAITGNGGRTYYADSVKGRFTISRDNAKNTVYLQMNSLKPEDTAVYYCAARYRGGVSVGYWGQGTQVTVSS | high polyreactivity
QVQLVESGGGLVQAGGSLRISCAASGSTFANYSMGWYRQAPGKERELVAVISVRGGSTYYADSVKGRFTISRDNAKNTVYLQMNSLKPEDTAVYYCAADASGPRRYDSWGQGTQVTVSS | high polyreactivity
QVQLVESGGGLVQAGGSLRLSCAASGLTFIYYAMGWYRQAPGKERELVAAISVSGGSTYYADSVKGRFTISRDNAKNTVYLQMNSLKPEDTAVYYCAADWFVHKPRYQYSFDYWGQGTQVTVSS | low polyreactivity
QVQHVESGGGLVQAGGSLRLSCASSGSTSGIHAMGWYRQAPGKDRELVAAIRLSGGRTYYADSVKGRFTISRDNAKNTVYLQMNSLKPEDTAVYFCNALYRQARIRATYDYWGQGTQVSVSS | high polyreactivity
QVQIVESGGGLFQAGGSLRLSSAASGNTFDKYAMGWYRQAPGKEREMVAAISSGGRTYYADSVKGRFTISRDNAKNTVYLQMNSLKPEDTAVYYCGKGSAGRGMDSWGQGTQVTVSS | low polyreactivity
QVQLVESGGGLVQAGGSLRLSCAASGIIFPRYTMGSYRQAPGKERELVAAISWRGGRTYYADSVKGRFTISRDNAKNTVYLQMNSLKPEDTAVYYCAAEFVHSYSYAYDYWGQGTQVTVSS | high polyreactivity
QVQLVESGGGLVQAGGSLRLSCAASGRTFAPNAMGWYRQAPGKERELVAAISWSGTSTYYADSVKGRFTISRDNAKNTVYLQMNSLKPEDTAVYYCAPDLEGRVGSPWTYDYWGQGTQVTVSS | low polyreactivity
QVQLVESGGGLVQAGGSLRLSCAASGSTFSGYVMGWYRQAPGKERELVAAINGGGGTTYYADSVKGRFTISRDNAKNTVYLQMNSLKPEDTAVYYCAKRSYVTYPPYDYWGQGTQVTVSS | high polyreactivity
QDQLVESGGGLVQAGGSLRLSCAASYYAMGWYRQAPGKERELVASISSGGSTNYADSVKGRFTISRDNAKNTVYLQMNSLKPDDTAVYYCAAQYYATYGYWGQGTQVTVSS | low polyreactivity
QVQLVESGGGLVQAGGSLRLSCAASGLTFYTYAMGWYRQAPGKERELVAAISTNGGSTYADSVKGRFTISRDNAKNTVYLQMNSLKPEDTAVYYCAAVYRTTRYGYWGQGTQVTVSS | low polyreactivity
QVQLVESGGGLVQAGGSLRLSCAASGFTFAPYAMGWYRQAPGKERELVATIRSSGGRTYYADSVKGRFTISRDNAKNTVYLQMNSLKPEDTAVYYCAATGVYTKNPRGMDYWGQGTKVTVSS | high polyreactivity
QVQLVESGGGLVQAGGSHRLSCAASGSTFWRYAMGWYRQAPGKERELVAAITRRGSSTYYADSVKGRFTISRDNAKNTVYLQMNSLKPEDTAVYYCAREPYPYIRTYILGNYWGQGTQVTVSS | high polyreactivity
QVQLVESGGGLVQAGGSLRLSCAASGSIFEAYAMGWYRQAPGKEREVVAVISWRGGRTYYADSVKGRFTISRDNAKNTVYLQMNSLNPEDTAVYYCNKAYWWHQVGLPRNYEYWGQGTQVTVSS | low polyreactivity
QVQLVESGGGLVQAGGSLRLSCAASGSTFTYYAMGWYRQAPGKERELFAAITFRGDSTYYADSVKGRFTISRDNAKNTVYLQMNILKPEDTAVYYCNADSISSTYYDEDYWGQGTQVTVSS | low polyreactivity
QVQLVESGGGLVQAGGSLRLSCAASGFTFSFYARGWYIQAPGKERELVAAIDRSGGSTYYADSVKGRFTISRDNAKNTVYLQMNSLKPEDTAVYYCAATVFYGYYYWGQGTQVTVSS | high polyreactivity
